The record followed here is article PMC10041117.

The target of the assay is F-actin of the thin filaments in NRCs, labelled with Phalloidin-iFluor 514 (rat (endogenous in neonatal rat cardiomyocytes)) (UniProt P68035). Description: FRET or BRET; FRET-FLIM (time-domain, TCSPC, donor lifetime) in NRCs demembranated in relaxing solution with 25 μmol/L nitro-blebbistatin and fixed with paraformaldehyde; mTFP donor, mVenus or Phalloidin-iFluor514 acceptor; cells untreated or incubated with isoproterenol before skinning.

mTFP-cMyBP-C (cardiac myosin binding protein-C with mTFP conjugated to its N terminus), sequence (Q14896 whole entry): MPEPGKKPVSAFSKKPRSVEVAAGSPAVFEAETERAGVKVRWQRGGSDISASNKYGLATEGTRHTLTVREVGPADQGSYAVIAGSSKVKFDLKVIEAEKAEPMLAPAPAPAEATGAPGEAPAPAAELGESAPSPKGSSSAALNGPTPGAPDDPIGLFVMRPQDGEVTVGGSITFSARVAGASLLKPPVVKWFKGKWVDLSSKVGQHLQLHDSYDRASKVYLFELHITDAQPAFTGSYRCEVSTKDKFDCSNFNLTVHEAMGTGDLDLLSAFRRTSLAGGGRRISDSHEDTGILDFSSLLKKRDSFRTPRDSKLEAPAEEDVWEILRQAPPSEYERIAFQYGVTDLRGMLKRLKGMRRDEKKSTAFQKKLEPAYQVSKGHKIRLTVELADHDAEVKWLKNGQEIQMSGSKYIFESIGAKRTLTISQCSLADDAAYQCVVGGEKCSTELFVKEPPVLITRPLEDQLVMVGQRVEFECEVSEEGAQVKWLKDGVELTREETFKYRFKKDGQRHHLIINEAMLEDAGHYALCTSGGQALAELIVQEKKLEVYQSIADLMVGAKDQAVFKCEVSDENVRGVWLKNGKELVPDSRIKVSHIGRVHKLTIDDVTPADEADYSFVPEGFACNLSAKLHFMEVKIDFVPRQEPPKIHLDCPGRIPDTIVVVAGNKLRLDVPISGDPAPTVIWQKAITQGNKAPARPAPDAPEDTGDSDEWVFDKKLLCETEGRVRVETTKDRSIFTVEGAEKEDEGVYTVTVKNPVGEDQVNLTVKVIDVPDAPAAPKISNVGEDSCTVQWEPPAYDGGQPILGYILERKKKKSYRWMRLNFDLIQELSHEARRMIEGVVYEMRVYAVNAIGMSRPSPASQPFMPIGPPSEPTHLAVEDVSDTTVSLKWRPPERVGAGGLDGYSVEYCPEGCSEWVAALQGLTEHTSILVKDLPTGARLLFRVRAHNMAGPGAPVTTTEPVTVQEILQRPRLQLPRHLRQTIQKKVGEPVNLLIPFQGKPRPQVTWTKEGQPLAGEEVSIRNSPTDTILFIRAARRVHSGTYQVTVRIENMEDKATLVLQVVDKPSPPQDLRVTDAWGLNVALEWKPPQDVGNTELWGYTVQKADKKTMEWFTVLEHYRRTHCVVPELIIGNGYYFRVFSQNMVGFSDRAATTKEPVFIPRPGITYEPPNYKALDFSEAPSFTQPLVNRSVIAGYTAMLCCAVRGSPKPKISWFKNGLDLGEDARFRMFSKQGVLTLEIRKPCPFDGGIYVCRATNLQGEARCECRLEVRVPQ

In the case of “mTFP-cMyBP-C (cardiac myosin binding protein-C with mTFP conjugated to its N terminus) (from UniProt Q14896 1-1274) (natural protein)”, the FRET efficiency <E%> was 12%.
